Test results from the supplement of paper PMC5998384.

Assays:
[1] = test system: HeLa Kyoto; test: solubility in G1/S (NP-40 vs SDS abundance) (log2 ratio); higher = more soluble; conditions: cell cycle stage: G1/S
[2] = test system: HeLa Kyoto; test: solubility change mitosis vs G1/S (difference of NP-40 vs SDS log2 ratios) (log2 ratio difference); higher = more soluble in mitosis
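Wherever solubility change mitosis vs G1/S (difference of NP-40 vs SDS log2 ratios) is given: synchronized HeLa Kyoto cells (double thymidine block for G1/S, nocodazole release for mitosis), protein amounts in NP-40 versus SDS lysates quantified by mass spectrometry, three biological replicates.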
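Wherever solubility in G1/S (NP-40 vs SDS abundance) is given: HeLa Kyoto cells arrested at G1/S by double thymidine block, proteins quantified by TMT10plex mass spectrometry in mild NP-40 versus SDS extracts, three biological replicates.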

## MDSTKEKCDSYKDDLLLRMGLNDNKAGMEGLDKEKINKIIMEATKGSRFYGNELKKEKQVNQRIENMMQQKAQITSQQLRKAQLQVDRFAMELEQSRNLSNTIVHIDMDAFYAAVEMRDNPELKDKPIAVGSMSMLSTSNYHARRFGVRAAMPGFIAKRLCPQLIIVPPNFDKYRAVSKEVKEILADYDPNFMAMSLDEAYLNITKHLEERQNWPEDKRRYFIKMGSSVENDNPGKEVNKLSEHERSISPLLFEESPSDVQPPGDPFQVNFEEQNNPQILQNSVVFGTSAQEVVKEIRFRIEQKTTLTASAGIAPNTMLAKVCSDKNKPNGQYQILPNRQAVMDFIKDLPIRKVSGIGKVTEKMLKALGIITCTELYQQRALLSLLFSETSWHYFLHISLGLGSTHLTRDGERKSMSVERTFSEINKAEEQYSLCQELCSELAQDLQKERLKGRTVTIKLKNVNFEVKTRASTVSSVVSTAEEIFAIAKELLKTEIDADFPHPLRLRLMGVRISSFPNEEDRKHQQRSIIGFLQAGNQALSATECTLEKTDKDKFVKPLEMSHKKSFFDKKRSERKWSHQDTFKCEAVNKQSFQTSQPFQVLKKKMNENLEISENSDDCQILTCPVCFRAQGCISLEALNKHVDECLDGPSISENFKMFSCSHVSATKVNKKENVPASSLCEKQDYEAHPKIKEISSVDCIALVDTIDNSSKAESIDALSNKHSKEECSSLPSKSFNIEHCHQNSSSTVSLENEDVGSFRQEYRQPYLCEVKTGQALVCPVCNVEQKTSDLTLFNVHVDVCLNKSFIQELRKDKFNPVNQPKESSRSTGSSSGVQKAVTRTKRPGLMTKYSTSKKIKPNNPKHTLDIFFK [POLK]
[1]
  solubility in G1/S (log2): -0.534
[2]
  solubility change mitosis (log2): 0.335

## MDTAEEDICRVCRSEGTPEKPLYHPCVCTGSIKFIHQECLVQWLKHSRKEYCELCKHRFAFTPIYSPDMPSRLPIQDIFAGLVTSIGTAIRYWFHYTLVAFAWLGVVPLTACRIYKCLFTGSVSSLLTLPLDMLSTENLLADCLQGCFVVTCTLCAFISLVWLREQIVHGGAPIWLEHAAPPFNAAGHHQNEAPAGGNGAENVAADQPANPPAENAVVGENPDAQDDQAEEEEEDNEEEDDAGVEDAADANNGAQDDMNWNALEWDRAAEELTWERMLGLDGSLVFLEHVFWVVSLNTLFILVFAFCPYHIGHFSLVGLGFEEHVQASHFEGLITTIVGYILLAITLIICHGLATLVKFHRSRRLLGVCYIVVKVSLLVVVEIGVFPLICGWWLDICSLEMFDATLKDRELSFQSAPGTTMFLHWLVGMVYVFYFASFILLLREVLRPGVLWFLRNLNDPDFNPVQEMIHLPIYRHLRRFILSVIVFGSIVLLMLWLPIRIIKSVLPNFLPYNVMLYSDAPVSELSLELLLLQVVLPALLEQGHTRQWLKGLVRAWTVTAGYLLDLHSYLLGDQEENENSANQQVNNNQHARNNNAIPVVGEGLHAAHQAILQQGGPVGFQPYRRPLNFPLRIFLLIVFMCITLLIASLICLTLPVFAGRWLMSFWTGTAKIHELYTAACGLYVCWLTIRAVTVMVAWMPQGRRVIFQKVKEWSLMIMKTLIVAVLLAGVVPLLLGLLFELVIVAPLRVPLDQTPLFYPWQDWALGVLHAKIIAAITLMGPQWWLKTVIEQVYANGIRNIDLHYIVRKLAAPVISVLLLSLCVPYVIASGVVPLLGVTAEMQNLVHRRIYPFLLMVVVLMAILSFQVRQFKRLYEHIKNDKYLVGQRLVNYERKSGKQGSSPPPPQSSQE [MARCH6]
[1]
  solubility in G1/S (log2): -0.397
[2]
  solubility change mitosis (log2): 0.155

## MDWKEVLRRRLATPNTCPNKKKSEQELKDEEMDLFTKYYSEWKGGRKNTNEFYKTIPRFYYRLPAEDEVLLQKLREESRAVFLQRKSRELLDNEELQNLWFLLDKHQTPPMIGEEAMINYENFLKVGEKAGAKCKQFFTAKVFAKLLHTDSYGRISIMQFFNYVMRKVWLHQTRIGLSLYDVAGQGYLRESDLENYILELIPTLPQLDGLEKSFYSFYVCTAVRKFFFFLDPLRTGKIKIQDILACSFLDDLLELRDEELSKESQETNWFSAPSALRVYGQYLNLDKDHNGMLSKEELSRYGTATMTNVFLDRVFQECLTYDGEMDYKTYLDFVLALENRKEPAALQYIFKLLDIENKGYLNVFSLNYFFRAIQELMKIHGQDPVSFQDVKDEIFDMVKPKDPLKISLQDLINSNQGDTVTTILIDLNGFWTYENREALVANDSENSADLDDT [C14ORF10]
[1]
  solubility in G1/S (log2): -0.0201
[2]
  solubility change mitosis (log2): -0.0757

## MEAPPVTMMPVTGGTINMMEYLLQGSVLDHSLESLIHRLRGLCDNMEPETFLDHEMVFLLKGQQASPFVLRARRSMDRAGAPWHLRYLGQPEMGDKNRHALVRNCVDIATSENLTDFLMEMGFRMDHEFVAKGHLFRKGIMKIMVYKIFRILVPGNTDSTEALSLSYLVELSVVAPAGQDMVSDDMKNFAEQLKPLVHLEKIDPKRLM [MED18]
[1]
  solubility in G1/S (log2): 0.212
[2]
  solubility change mitosis (log2): -0.161

## MEDGVLKEGFLVKRGHIVHNWKARWFILRQNTLVYYKLEGGRRVTPPKGRILLDGCTITCPCLEYENRPLLIKLKTQTSTEYFLEACSREERDAWAFEITGAIHAGQPGKVQQLHSLRNSFKLPPHISLHRIVDKMHDSNTGIRSSPNMEQGSTYKKTFLGSSLVDWLISNSFTASRLEAVTLASMLMEENFLRPVGVRSMGAIRSGDLAEQFLDDSTALYTFAESYKKKISPKEEISLSTVELSGTVVKQGYLAKQGHKRKNWKVRRFVLRKDPAFLHYYDPSKEENRPVGGFSLRGSLVSALEDNGVPTGVKGNVQGNLFKVITKDDTHYYIQASSKAERAEWIEAIKKLT [PLEK2]
[1]
  solubility in G1/S (log2): -0.00783
[2]
  solubility change mitosis (log2): -0.0462

## MEDLEEDVRFIVDETLDFGGLSPSDSREEEDITVLVTPEKPLRRGLSHRSDPNAVAPAPQGVRLSLGPLSPEKLEEILDEANRLAAQLEQCALQDRESAGEGLGPRRVKPSPRRETFVLKDSPVRDLLPTVNSLTRSTPSPSSLTPRLRSNDRKGSVRALRATSGKRPSNMKRESPTCNLFPASKSPASSPLTRSTPPVRGRAGPSGRAAASEETRAAKLRVSGSGEFVGLTLKFLHPSPPGPPTPIRSVLAPQPSTSNSQRLPRPQGAAAKSSSQLPIPSAIPRPASRMPLTSRSVPPGRGALPPDSLSTRKGLPRPSTAGHRVRESGHKVPVSQRLNLPVMGATRSNLQPPRKVAVPGPTR [PSRC1]
[1]
  solubility in G1/S (log2): -0.152
[2]
  solubility change mitosis (log2): 0.803

## MEEEQDLPEQPVKKAKMQESGEQTISQVSNPDVSDQKPETSSLASNLPMSEEIMTCTDYIPRSSNDYTSQMYSAKPYAHILSVPVSETAYPGQTQYQTLQQTQPYAVYPQATQTYGLPPFGALWPGMKPESGLIQTPSPSQHSVLTCTTGLTTSQPSPAHYSYPIQASSTNASLISTSSTIANIPAAAVASISNQDYPTYTILGQNQYQACYPSSSFGVTGQTNSDAESTTLAATTYQSEKPSVMAPAPAAQRLSSGDPSTSPSLSQTTPSKDTDDQSRKNMTSKNRGKRKADATSSQDSELERVFLWDLDETIIIFHSLLTGSYAQKYGKDPTVVIGSGLTMEEMIFEVADTHLFFNDLEECDQVHVEDVASDDNGQDLSNYSFSTDGFSGSGGSGSHGSSVGVQGGVDWMRKLAFRYRKVREIYDKHKSNVGGLLSPQRKEALQRLRAEIEVLTDSWLGTALKSLLLIQSRKNCVNVLITTTQLVPALAKVLLYGLGEIFPIENIYSATKIGKESCFERIVSRFGKKVTYVVIGDGRDEEIAAKQHNMPFWRITNHGDLVSLHQALELDFL [EYA3]
[1]
  solubility in G1/S (log2): -0.0392
[2]
  solubility change mitosis (log2): -0.0147

## MEEFDLVKTLHKTSSSVGSDENSLHSLGLNLNTDRSSPHLSTNGVSSFSGKTRPSVIQGTVEVLTSLMQELQNSGKTDSELWKNCETRWLQLFNLVEKQCQEQIVAQQEQFHNQIQHIQEEIKNLVKLQTSSASLASCEGNSSNKQVSSESQMGFFSLSSERNESVIHYPESTEPEIQQEMSTSQPDCNVDSCSVSSGYGTFCISELNLYKSKDPKEFMEHIDVPKGQYVAPAVPAESLVDGVKNENFYIQTPEECHVSLKEDVSISPGEFEHNFLGENKVSEVYSGKTNSNAITSWAQKLKQNQPKRAHVEDGGSRSKQGNEQSKKTPIEKSDFAAATHPRAFYLSKPDETPNAWMSDSGTGLTYWKLEEKDMHHSLPETLEKTFISLSSTDVSPNQSNTSNEMKLPSLKDIYYKKQRENKQLPERNLTSASNPNHPPEVLTLDPTLHMKPKQQISGIQPHGLPNALDDRISFSPDSVLEPSMSSPSDIDSFSQASNVTSQLPGFPKYPSHTKASPVDSWKNQTFQNESRTSSTFPSVYTITSNDISVNTVDEENTVMVASASVSQSQLPGTANSVPECISLTSLEDPVILSKIRQNLKEKHARHIADLRAYYESEINSLKQKLEAKEISGVEDWKITNQILVDRCGQLDSALHEATSRVRTLENKNNLLEIEVNDLRERFSAASSASKILQERIEEMRTSSKEKDNTIIRLKSRLQDLEEAFENAYKLSDDKEAQLKQENKMFQDLLGEYESLGKEHRRVKDALNTTENKLLDAYTQISDLKRMISKLEAQVKQVEHENMLSLRHNSRIHVRPSRANTLATSDVSRRKWLIPGAEYSIFTGQPLDTQDSNVDNQLEETCSLGHRSPLEKDSSPGSSSTSLLIKKQRETSDTPIMRALKELDEGKIFKNWGTQTEKEDTSNINPRQTETSVNASRSPEKCAQQRQKRLNSASQRSSSLPPSNRKSSTPTKREIMLTPVTVAYSPKRSPKENLSPGFSHLLSKNESSPIRFDILLDDLDTVPVSTLQRTNPRKQLQFLPLDDSEEKTYSEKATDNHVNHSSCPEPVPNGVKKVSVRTAWEKNKSVSYEQCKPVSVTPQGNDFEYTAKIRTLAETERFFDELTKEKDQIEAALSRMPSPGGRITLQTRLNQEALEDRLERINRELGSVRMTLKKFHVLRTSANL [MPHOSPH9]
[1]
  solubility in G1/S (log2): -0.0212
[2]
  solubility change mitosis (log2): 0.149

## MEEKPSGPIPDMLATAEPSSSETDKEVLSPAVPAAAPSSSMSEEPGPEQAATPPVWERGGAGGMQQGSSPAPDSCQPGPGPSPGLTSIVSGTSEDLRPPRRRPPPGKQIPCSSPGCCLSFPSVRDLAQHLRTHCPPTQSLEGKLFRCSALSCTETFPSMQELVAHSKLHYKPNRYFKCENCLLRFRTHRSLFKHLHVCAEHAQSPAPPPPPALDREPPAPERPPEVDPASAPGLPFPLLEPFTTPAPAPTGPFLPYLNPAPFGLSPPRLRPFLAAAPGPPASSAAVWKKSQGAGSSPRRPQGGSDAPSGACR [ZNF414]
[1]
  solubility in G1/S (log2): -0.217
[2]
  solubility change mitosis (log2): -0.445

## MEEKYGGDVLAGPGGGGGLGPVDVPSARLTKYIVLLCFTKFLKAVGLFESYDLLKAVHIVQFIFILKLGTAFFMVLFQKPFSSGKTITKHQWIKIFKHAVAGCIISLLWFFGLTLCGPLRTLLLFEHSDIVVISLLSVLFTSSGGGPAKTRGAAFFIIAVICLLLFDNDDLMAKMAEHPEGHHDSALTHMLYTAIAFLGVADHKGGVLLLVLALCCKVGFHTASRKLSVDVGGAKRLQALSHLVSVLLLCPWVIVLSVTTESKVESWFSLIMPFATVIFFVMILDFYVDSICSVKMEVSKCARYGSFPIFISALLFGNFWTHPITDQLRAMNKAAHQESTEHVLSGGVVVSAIFFILSANILSSPSKRGQKGTLIGYSPEGTPLYNFMGDAFQHSSQSIPRFIKESLKQILEESDSRQIFYFLCLNLLFTFVELFYGVLTNSLGLISDGFHMLFDCSALVMGLFAALMSRWKATRIFSYGYGRIEILSGFINGLFLIVIAFFVFMESVARLIDPPELDTHMLTPVSVGGLIVNLIGICAFSHAHSHAHGASQGSCHSSDHSHSHHMHGHSDHGHGHSHGSAGGGMNANMRGVFLHVLADTLGSIGVIVSTVLIEQFGWFIADPLCSLFIAILIFLSVVPLIKDACQVLLLRLPPEYEKELHIALEKIQKIEGLISYRDPHFWRHSASIVAGTIHIQVTSDVLEQRIVQQVTGILKDAGVNNLTIQVEKEAYFQHMSGLSTGFHDVLAMTKQMESMKYCKDGTYIM [SLC30A5]
[1]
  solubility in G1/S (log2): -0.143
[2]
  solubility change mitosis (log2): -0.241
